test: yeast display, Sf9 membrane polyspecificity reagent, FACS + sequencing; frameworks hold sequencing errors
Procedure, shortened: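 Galactose-induced (36–48 hours) yeast carrying a synthetic nanobody display library were exposed to 10% biotinylated, detergent-solubilized Sf9 membrane reagent at 4 °C for 1 hour. FACS followed streptavidin microbead enrichment, using low and high (top ~1%) gates for expression (anti-HA) and reagent binding (streptavidin). Colony PCR, MiSeq 2 × 250 sequencing and CDR-length filtering followed. Labels for polyreactivity reflect the gate of origin.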

Sequence	polyreactivity (PSR sort gate)
QVQLVESGGGLVQAGGSLRLSCAASGIIISRYAMGWYRQAPGKERELVADISIGDSTNYADSVKGRFTISRDNAKNTVYLQMNSLKPEDTAVYYCAAGDYFYSYYYWGQGTQVTVSS	low polyreactivity
QVQLVESGGGLVQAGGSLRLSCAASGIIIVGNSMGWYRQAPGKQRELVASINSGGSTYYADSVKGRFTISRDNAKNTVYLQMNSLKPEDTAVYDCAVEEDRYYYDDYDYCGQGTQVTVSS	low polyreactivity
QVQLVESGGGLVQAGGSLRLSCAASGIILDHYAMGWYRQAPGKERELVAAISSGTRTNYADSVKGRFTISRDNAKNTVYLQMNSLKPEDTAVYYCAATIYRRYRSKSSITSYWGQGSQVTVSS	high polyreactivity
QVQLVESGGGLVQAGGSLRLSCAASGIILKYYAMGWNRQAPVKERELVAAITSSGDSTYYADSVKGRFTISRDNAKNTVYLQMNSLKPDDTAVYYCAALRFRGGQSTGRDRMDYWGQGTQVTVSS	high polyreactivity
QVQLVESGGGLVQAGGSLRLSCAASGIILPQNAMGWYRQAPGKERELVAAISKSGGRTYYADSVKGRFTISRDNAKNTVYLQMNSLKPEDTAVYYCAAVVRRAPEFDYWGQGTQVTVSS	high polyreactivity
QVQLVESGGGLVQAGGSLRLSCAASGIILSAYAMGWYRQAPGKERELVARISRSGGRTYYADSVKGRFTISRDNAKNTVYLQMNSLKPEDTAVYYCAADYTYGFGLYFGYGYWRQGTQVTVSS	high polyreactivity
QVQLVESGGGLVQAGGSLRLSCAASGIILSENAKGWYRQAPGKERELVAAITSSGSTNYADSVKGRLTISRDNAKNTVYLQMNSLKPVDTAVYYCATQNLYVSWYYAWYGYGYWGQGTQVNVSS	low polyreactivity
QVQLVESGGGLVQAGGSLRLSCAASGIILSPYAMGWYRQAPGKERELVAAISRSGGSTYYADSVKGRFTISRDNAKNTVYLQMNSLKPEDTAVYYCAAEYYGYWEYDYWGQGTQVTVSS	high polyreactivity
QVQLVESGGGLVQAGGSLRLSCAASGIILTPNAMGWYRQAPGTERELVAAIDWRDGITYYADSVKGRFTISRDNAKNTVYLQMNSLKPEDTAVYYCAATFSRGYDYWGQGTQVTVSS	high polyreactivity
QVQLVESGGGLVQAGGSLRLSCAASGIILTYYAMGWYRPAAGHERELVARISSSGGRTYYADSVKARFTISRDNAKNTLYLQMNSQKPEETAVYYCAAAIVSSGRNDYWGHGTQVTVSS	high polyreactivity
QVQLVESGGGLVQAGGSLRLSCAASGIILYPYAMGWYRQAPGKERELVAAISWSGGSTYYADSVKGRFTISRDNAKNTVYLQMNSLKPEDTAVYYCNARYYGPSWNSYDYWGQGTQVTVSS	high polyreactivity
QVQLVESGGGLVQAGGSLRLSCAASGIILYRNGMGWYRQAPGKERELVAAISWSTGSTYYADSVKGRFTISRDNAKYTVYLQMNSLKPEDTAVYYCATDYVGYSFGMYYWGQGTQVTVSS	low polyreactivity
QVQLVESGGGLVQAGGSLRLSCAASGIILYYYAMGWYRQAPGKERELVAAISSGGNTYYADSVKGRFTISRDNAKNTVYLQMYSLKPEDTAVYYCAAVTVIGGEYDYWGQGTQVTVSS	low polyreactivity
QVQLVESGGGLVQAGGSLRLSCAASGIISSFYAMGWYRQAPGKERELVAAINWSGDSTYYADSVKGRFTISRDNAKNTVYLQMNSLKPEDTAVYYCAADYYGFYDEHDYWGQGTKVTVSS	low polyreactivity
QVQLVESGGGLVQAGGSLRLSCAASGIIYDAYAMGWYRQAPGKERELVAAISSGGSTYYADSVKGRFTISRDNAKNTVSLQMNSLKPEDTAVYYCAAETEYPSWYDYWGQGTQVTVSS	low polyreactivity
QVQLVESGGGLVQAGGSLRLSCAASGIIYHFNDMGWYRQAPGQERELVASIDSTGSTNYADSVKGRFTLSRDNAKNTVYLQMNSLKPEDTAVYYCAVLNHRVDSVLTRYYYWGQGTQVTVSS	low polyreactivity
QVQLVESGGGLVQAGGSLRLSCAASGIIYVYAMGWYRQAPGKERELVAAITWSGGSTYYADSVKGRFTISRDNAKNTVYLQMNTLKPEDTAVYYCARGQGGEYDLDYDYWGQGTQVTVSS	low polyreactivity
QVQLVESGGGLVQAGGSLRLSCAASGIIYYANVMGWYRQAPGKERELVAGISRNGGRTYYADSVKGRFTISRDNAKNTVYLQMNSLKPEDTAVYYCAARGSYTSIFDYWGQGTQVTVSS	high polyreactivity
QVQLVESGGGLVQAGGSLRLSCAASGINFFGYAMGWYRQAPGKERELVAGISRSTGRTYYADSVKGRFTISRDNAKNTVYLQMNSLKQEDTSVYYCAARATRSLSRSMDYWGQGTQVTVSS	high polyreactivity
QVQLVESGGGLVQAGGSLRLSCAASGINFPGYAMGWYRQAPGKERELVAVIRKSGTSTYYADSVKGRFTISRDNAKNTVYLQMNSLKPEDTAVYYCAAGGPSTLDDYWGQGTQVTVSS	low polyreactivity
QVQLVESGGGLVQAGGSLRLSCAASGINFQNYAMGLYRQAPGKEREFVASISFSGASTYYADSVKGRFTISRDKAKNTVYLQMNSLKPDDTAVYYCAARYLYGPKYYYWGQGTQVTVSS	high polyreactivity

Sequence	polyreactivity (PSR sort gate)
QVQLVESGGGLVQAGGSLRLSCAASGINNSVNDMGLYRQAPGKERELVAAISSGDSTNYADSVKGRFTISRDNAKNTVYLQMNSLKPEDTAGYYCAALEGCLTGWQTYDYWGQGTQVTVSS	low polyreactivity
QVQLVESGGGLVQAGGSLRLSCAASGINYVRYAMGWYRQAPGKEREFVAAITRNGGRTYYADSVKGRFTISRDNAKNTVYLQMNSLKPEDTAVYYCAAYPAYPGTLEMDYWGQGTQVTVSS	high polyreactivity
QVQLVESGGGLVQAGGSLRLSCAASGISFEYYAMGWYRQAPGKERELVAAITRGGSTYYADSVKGRFTISRDNAKNTVYLQMNSLKPEDTAVYYCAADRYYYEYDYWGQGTQVTVSS	low polyreactivity
QVQLVESGGGLVQAGGSLRLSCAASGITCSYYTIGWYRQATGKEWELVATISQSSGSTYYADSVKGRFTISRDNAKNTVYLQINTLKPEDTAVYYCKARRDYEWVSWNVVDDYWGQGTQVTVSS	high polyreactivity
QVQLVESGGGLVQAGGSLRLSCAASGITFAEYAMGWYRPAPGKERELVAAINGGGGSTYYADSVKGRFTISRDYAKNTVYFQMNSLKPEDTAVYYCAADGYPGDYDYWGQGTQVTVSS	high polyreactivity
QVQLVESGGGLVQAGGSLRLSCAASGITFAFYDMGWYRQAPGKERELVAAISYSGGGTYYADSVKGRFTISRDNAKNTVYLQMNSLKPEDTAVYYCAADPKTHALFGEDYWGQGTQVTVSS	low polyreactivity
QVQLVESGGGLVQAGGSLRLSCAASGITFAGYAMGSDREAPGTERELVAAITRRGGITYYADSVKGRFTISRDNAKNTVYLQMNSLKPEDTAVYYCNAGRRVSTYGYWGQGTQVTVSS	high polyreactivity
QVQLVESGGGLVQAGGSLRLSCAASGITFALNAMGWYRQAPGKERELVAAIRWGGDSTYYADSVKGRFTISRDNAKNTVYLQMNSLKPEDTAVYYCAAYGPRTLDYWGQGTQVTVSS	high polyreactivity
QVQLVESGGGLVQAGGSLRLSCAASGITFALYAMGWYRKAPGKERELVAAISYSGGRTYYADSVKGRFTISRDTAKNTVYLQMNSLKPEDTAVYYCAAGGSGSGPYGYGYWGQGTQVTVSS	high polyreactivity
QVQLVESGGGLVQAGGSLRLSCAASGITFASNPMGWYRQAPGKERELVAAITRGDNTYYADSVKGRFTISRDNAKNTVYLQMNSLKPEDTAVYYCATEGYQIQYEHDYWGQGTQVTVSS	low polyreactivity
QVQLVESGGGLVQAGGSLRLSCAASGITFASYAMGWYRQAPGKERELVAVITRSTGRTYYADSVKGRFTISRDNAKNTVYLQMNSLKPEDTAVYYCAAGYITWYDYWGQGTQVTVSS	high polyreactivity
QVQLVESGGGLVQAGGSLRLSCAASGITFASYVMGWYRQAPGKERELVAAISSSGGSTYYADSVKGRFTISRDNAKNTVYLQMNSLKPEDTAVYYCKARLYYSWRSTYDYWGQGTQVTVSS	high polyreactivity
QVQLVESGGGLVQAGGSLRLSCAASGITFATNAMGWYRQAPGKERELVAGITSGGSTYYADSVKGRFTISRDNAKNTVYLQMNSLKPEDTAVYYCAKRYHYWYGTGYDYWGQGTQVTVSS	low polyreactivity
QVQLVESGGGLVQAGGSLRLSCAASGITFATYAMGWYRQAPGKERELVAAISGGGGRTYYADSLKGRFTISRDNAKNTVYLQMNSLKPEDTAVYYCATAQRSSQFYHWGQGTQVTVSS	high polyreactivity
QVQLVESGGGLVQAGGSLRLSCAASGITFAVKAMGWSRQAPGKERELVAAISRSAGSTYYADSVKGRFTISRDNAKNTVYLQMNSLKPEDTAVYYCATALRYARSRNRFYYWGQGTQVTVST	high polyreactivity
QVQLVESGGGLVQAGGSLRLSCAASGITFAVYAMGWYRQAPGKERELVAAITRGGGSTYYADSVKGRFSISRDNAKNTVYLQMNSLKPEHTAVYYCNADSIPEGNSRYSHFDYWGQGTQVTVSS	low polyreactivity
QVQLVESGGGLVQAGGSLRLSCAASGITFAYKAMGWYRQAPGTERELVARITSGGRTYYSDSVKARFTISRDNAMNTVYLQMNSLKPEDTAVYYCNAKEGSRYRKYDYWGQGTQVTVSS	low polyreactivity
QVQLVESGGGLVQAGGSLRLSCAASGITFAYYAMGWSRQAPGKERELVAAIRWSGGDTYYADSVKGRFTISRDNAKNTVYLQMNSLKPEDTAVYYCAADTTWGYDYWGQGTQVTVSS	low polyreactivity
QVQLVESGGGLVQAGGSLRLSCAASGITFAYYAMGWYRQAPGKERELVAAITRGGSTFYADSVKGRFTISRDNAKNTVYLQMNSLKPEDTAVYYCAKRYGTNTRYYHPYRYDYWGQGTQVTVSS	high polyreactivity
QVQLVESGGGLVQAGGSLRLSCAASGITFAYYVMGWYRQAPGKERELVAAINGSGGSTYYADSVKGRFTISRDTAKNTVYLQMNSLKPEDTAVYYCAAEQYVYRRYPEPDWYAYNYWGQGTQVTVSS	high polyreactivity

Source: the nanobody polyreactivity screen of Harvey et al. (2022)
